Assay: soluble on expression in E. coli; label from the status in PepcDB or PDB records

Row | Sequence | soluble on expression in E. coli
1 | AAAAAAMTMMDMNFKYCHKIMKKHSKSFSYAFDLLPEDQRKAVWAIYAVCRKIDDSIDVYGDIQFLNQIKEDIQSIEKYPYEYHHFQSDRRIMMALQHVAQHKNIAFQSFYNLIDTVYKDQHFTMFETDAELFGYCYGVAGTVGEVLTPILSDHETHQTYDVARRLGESLQLINILRDVGEDFENERIYFSKQRLKQYEVDIAEVYQNGVNNHYIDLWEYYAAIAEKDFRDVMDQIKVFSIEAQPIIELAARIYIEILDEVRQANYTLHERVFVEKRKKAKLFHEINSKYHRI | soluble
2 | AADITVASYNIHKGVGTDRRRDLRRTAAVIAELDADLVALQEADRRFGDRAGLLDLEHLKDETGLVPVKVEGRGRAHGWHGNLLLVRDAEVEEVQKIVLPSFEPRGALMIDMMIRGRPLRVIAAHLGLLPASRAAQTRHLLERIEASTPRPTLLMGDLNEWRGTGAAMGHLARHFTGGVMVRSFPSRFPILALDRLMTCKHGQLHDVSTHDTPLARRASDHLPIKARLHLP | not soluble
3 | AALPDSVDWREKGCVTEVKYQGSCGASWAFSAVGALEAQLKLKTGKLVSLSAQNLVDCSTEKYGNKGCNGGFMTTAFQYIIDNKGIDSDASYPYKAMDQKCQYDSKYRAATCSKYTELPYGREDVLKEAVANKGPVSVGVDARHPSFFLYRSGVYYEPSCTQNVNHGVLVVGYGDLNGKEYWLVKNSWGHNFGEEGYIRMARNKGNHCGIASFPSYPEILQG | soluble
4 | AARRALIVLAHSEKTSFNYAMKEAAVEALKKRGWEVLESDLYAMNFNPIISRNDITGELKDSKNFQYPSESSLAYKEGRLSPDIVAEHKKLEAADLVIFQFPLQWFGVPAILKGWFERVLVAGFAYTYAAMYDNGPFQNKKTLLSITTGGSGSMYSLQGVHGDMNVILWPIQSGILRFCGFQVLEPQLVYSIGHTPPDARMQILEGWKKRLETVWEETPLYFAPSSLFDLNFQAGFLLMKEVQEEQKKNKFGLSVGHHLGKSIPADNQIKARK | soluble
5 | AASSLDELVALCKRRGFIFQSSEIYGGLQGVYDYGPLGVELKNNLKQAWWRRNVYERDDMEGLDASVLTHRLVLHYSGHEATFADPMVDNAKARYWTPPRYFNMMFQDLRGPRGGRGLLAYLRPETAQGIFVNFKNVLDATSRKLGFGIAQIGKAFRNEITPRNFIFRVREFEQMEIEYFVRPGEDEYWHRYWVEERLKWWQEMGLSRENLVPYQQPPESSAHYAKATVDILYRFPHGSLELEGIAQRTDFDLGSHTKDQEALGITARVLRNEHSTQRLAYRDPETGKWFVPYVIEPSAGVDRGVLALLAEAFTREELPNGEERIVLKLKPQLAPIKVAVIPLVKNRPEITEYAKRLKARLLALGLGRVLYEDTGNIGKAYRRHDEVGTPFAVTVDYDTIGQSKDGTTRLKDTVTVRDRDTMEQIRLHVDELEGFLRERLRW | soluble
6 | AAYEAELLGRVGLMSHLTRRLHESAKLNPHRVIYAACENPSVLKAAVSARAHGIARPIMLGDEKQIRDFAAELDLSLEGIEIVNYRSDEEKARRHHYARVFAEQNWRRGGNHTEALDKMFDPNYFGMMMVRLGDADAMITGIYSKHSYLAEVAKQTVGLQEGVGHFATMHMVSLKNGPLFLADTLINHNLSAEALVDIAVMAYEKAHCFGVKPVLAIVGFSDFGADSDADSTVEAAKAVAILHEKYPYILVDGEMRVSLALHAEKRDKQYPQNKIKGRNANVLIFPRLSAANACYQLLREADDAEEVLGPIQIGLAKPVYFADHDATVSDILNITAMAVLDSHACLI | soluble
7 | ADFDYVVVGAGNAGNVVAARLTEDPDVSVLVLEAGVSDENVLGAEAPLLAPGLVPNSIFDWNYTTTAQAGYNGRSIAYPRGRMLGGSSSVHYMVMMRGSTEDFDRYAAVTGDEGWNWDNIQQFVRKNEMVVPPADNHNTSGEFIPAVHGTNGSVSISLPGFPTPLDDRVLATTQEQSEEFFFNPDMGTGHPLGISWSIASVGNGQRSSSSTAYLRPAQSRPNLSVLINAQVTKLVNSGTTNGLPAFRCVEYAEQEGAPTTTVCAKKEVVLSAGSVGTPILLQLSGIGDENDLSSVGIDTIVNNPSVGRNLSDHLLLPAAFFVNSNQTFDNIFRDSSEFNVDLDQWTNTRTGPLTALIANHLAWLRLPSNSSIFQTFPDPAAGPNSAHWETIFSNQWFHPAIPRPDTGSFMSVTNALISPVARGDIKLATSNPFDKPLINPQYLSTEFDIFTMIQAVKSNLRFLSGQAWADFVIRPFDPRLRDPTDDAAIESYIRDNANTIFHPVGTASMSPRGASWGVVDPDLKVKGVDGLRIVDGSILPFAPNAHTQGPIYLVGKQGADLIKADQ | soluble
8 | ADKLRAACIRIQKTIRGWLLRKRYLCMQRAAITVQRYVRGYQARCYAKFLRRTKAATT | soluble
9 | ADTMTFTAKNGNVTFDHKKHQTIVPDCAVCHGKTPGKIEGFGKEMAHGKSCKGCHEEMKKGPTKCGECHKK | soluble
10 | ADTYAATRYPVILVHGLAGTDKFANVVDYWYGIQSDLQSHGAKVYVANLSGFQSDDGPNGRGEQLLAYVKQVLAATGATKVNLIGHSQGGLTSRYVAAVAPQLVASVTTIGTPHRGSEFADFVQDVLKTDPTGLSSTVIAAFVNVFGTLVSSSHNTDQDALAALRTLTTAQTATYNRNFPSAGLGAPGSCQTGAATETVGGSQHLLYSWGGTAIQPTSTVLGVTGATDTSTGTLDVANVTDPSTLALLATGAVMINRASGQNDGLVSRCSSLFGQVISTSYHWNHLDEINQLLGVRGANAEDPVAVIRTHVNRLKLQGV | soluble
11 | AEPDQAPELNEAQREAVDTIGALSAFQPVLLHGVTGSGKTEVYLHAAARVLQAGRQVLLMVPEINLTPQLEGALRARLEALVGPQGVAILHSGLADGERVQAWARAQRGQARLLLGTRMSIFAPLPELGLIVVDEEHDPSYKQQEGLRYSARDLAIWRARDLDIPVVLGSATP | not soluble
12 | AESLPDLKIEKLDEGVYVHTSFEEVNGWGVVPKHGLVVLVNAEAYLIDTPFTAKDTEKLVTWFVERGYKIKGSISSHFHSASTGGIEWLNSRSIPTYASELTNELLKKDGKVQATNSFSGVNYWLVKNKIEVFYPGPGHTPDNVVVWLPERKILFGGCFIKPYGLGNLGDANIEAWPKSAKLLKSKYGKAKLVVPSHSEVGDASLLKLTLEQAVKGLNESKKPSKPSN | soluble
13 | AESTLGAAAAQSGRYFGTAIASGKLGDSAYTTIASREFNMVTAENEMKIDATEPQRGQFNFSAGDRVYNWAVQNGKQVRGHTLAWHSQQPGWMQSLSGSTLRQAMIDHINGVMGHYKGKIAQWDVVSHAFSDDGSGGRRDSNLQRTGNDWIEVAFRTARAADPAAKLCYNDYNIENWTWAKTQGVYNMVRDFKQRGVPIDCVGFQSHFNSGSPYNSNFRTTLQNFAALGVDVAITELDIQGASSSTYAAVTNDCLAVSRCLGITVWGVRDTDSWRSGDTPLLFNGDGSKKAAYTAVLNALNGGSSTPPPSGGGQIKGVGSGRCLDVPNASTTDGTQVQLYDCHSATNQQWTYTDAGELRVYGDKCLDAAGTGNGTKVQIYSCWGGDNQKWRLNSDGSIVGVQSGLCLDAVGGGTANGTLIQLYSCSNGSNQRWTRT | soluble
14 | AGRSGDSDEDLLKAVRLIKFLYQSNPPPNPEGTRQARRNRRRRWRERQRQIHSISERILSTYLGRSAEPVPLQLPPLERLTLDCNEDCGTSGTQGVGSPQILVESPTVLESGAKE | soluble
15 | AGTKLSLMPWFHGKITREQAERLLYPPETGLFLVRESTNYPGDYTLCVSSDGKVEHYRIMYHASKLSIDEEVYFENLMQLVEHYTSDADGLCTRLIKPKVMEGTVA | soluble
16 | AHHHHHHGSAESPFKADIERAQKELSEKMTPGAIVYIPGSSVINKTGSWRVFKPEFNRDKCVRCYLCYIYCPEPAIYLDEEGYPVFDYDYCKGCGICANECPTKAIEMVREVK | not soluble
17 | AHHHHHHGSETEEIEAPKKKVPLAMVTIRPAKLFDIPYIMRIEQMSFKEAYPRGLFLTFLEANPDTFLVAEYNGKIVGYVMGYLRPDMEGHIMSIAVHPDYRGNGIGKALMIAVIKKLFEKGARWIGLEVRVSNYRAINLYKKLGFKIVKRIISYYSDGEDAYYMILRPEDFERVILS | not soluble
18 | AHHHHHHGSIDLILLAGKLKRIPRMGWLIKGVPNPESVADHSYRVAFITLLLAEELKKKGVEIDVEKALKIAIIHDLGEAIITDLPLSAQKYLNKEEAEAKALKDVLPEYTELFEEYSKALTLEGQLVKIADKLDMIIQAYEYELSGAKNLSEFWNALEDLEKLEISRYLREIIEEVRRLKDDH | soluble
19 | AHHHHHHGSILEKAREILEEHQLCNHCLGRLFGKLGKGTNEERGRAIRLLLSMETGKEYKEPEKCELCGGVFNNLDKFAELCIKAAEGIEFETFWVGSRFPEEIEKKEEEIWRKFRVVSGEKITKEFNRELGKVIAVRYGKTPVKERPDVVFIVEPFSEKVELQVNPIYVAGRYRKLIRGIPQTPAPGFKESIATIICRAFKKHFHGKCIFKGAGREDVDVRMLGNGRPFVVEIKRPRKRKVNLKDIEEEINQSGKVEVLNLRFITPEEAERILTTRHRKVYEAIVYVKDGITKEEVEKVVKSLKNAEIKQRTPRRVLNSRADLVRVRKVYDVKGELIDDKHFKLRLVTDGGLYIKELISGDRGRTTPSVSEILGKEAWCEILDVLEVLDDVEGDN | soluble
20 | AHHHHHHGSIWEEILNFEPYRAVEGNYRIWLDKNESPYDLPPQLKEEILEELKRIEFNRYPHITSDPLREALAEFYGLKKENIAVGNGSDELINYLVKMFKGKYIVVTSPTFGMYSFFAKLHGIPVKDIPLKEDFTIDGERIAEEGKAASAIFIASPNNPTGNSQPENEVLKVLDSGRVVILDEAYSEFSGKSFIPKISEYENLVILRTFSKAFGLAGIRCGYMIANEKIIDALYRILPPYNLNSLTMTVAIKMLEHYDIVKRRIKLIVKERERIRREFIEYSYPSEANFLLMKLDAYDYLLKKGIVVRKLSGRLEGHIRVTIGKKWENDELIKALKEFLEECRCG | soluble
21 | AHHHHHHGSKIATIVGARPQFIKMAPVSRELRKYFEEVVIHTGQHYDYEMDRIFFEQLNIPEPDYNLGVGSGSHGYQIGEMLKKIEEVLIKEKPDLVMVFGDTNSTLAGALAAAKLKIKVAHVEAGLRSFDKSMPEEINRILTDHVSDYLFAPTETAVKNLYNEGIRNGVYLTGDVMLDALLYNVKIAERCSEILNKLGLKPKEFCLATVHRAENTDNLERLKNIIDAFVECKETIVFPVHPRTEKVLKAYGLYDSLKKAENVILIKPVGYLDMLMLEKNAKKILTDSGGVQKEAYFLKVPCITLRERTEWVETVEDGWNVLVGADKEKILRAVREFEPSGETYTYKFGDGRASEKIAEVIKNVDR | not soluble
22 | AHHHHHHGSKKRLPASRVYIKDILEGYFVKSEGDFEPNYLITKDARKIYRAKIVGTVIREPLIAEDETYGKFQIDDGTGVIWVLGFRDDTKFAKLVKKGDLVQVIGKIAEWRDDKQILVEGVAKVHPNMWILHRYETLKEKIEHARKAKIAFEIYNTYGITAKSKVIAKNKGVPEELLETIDELYGIIMEEKAMEEPVEELIEEEITEEGKEENEILEKVKQEILEILRSKKIAVSRKYILKKLGEKYDEETIEDAIAELLADGEIYEPETGYYKLL | not soluble
23 | AHHHHHHGSKLDDSFLTLFPEEDKVYEVLLSTKSNFTPIGVRRQGRVLKFRIFEGRSFRDLEECNYAIIQVVDDTELLAGLAYNLDVKFDVTQGIKVPIRRIEGYPWVEGEVKCRIVKVKDSIGESIAKDCTLTPIYIGIEKRVPRPISRADNVLLELAVLGTRLIVKKKRGLQIKDVAQKIEELYELYRKLGGKSEIAGKIMDILRKHYL | soluble
24 | AHHHHHHGSKLMEVSPLFPCIFLRRVNRFVGLVRIKERIERALITNTGRLNEFMIPGRIGYCTPKAGGKTRYILLGFEDHGKIAIIDTRLQGKAFEKIIEKELLPELEGCRIIKREPRVGESRLDYLLECSKGEIFVETKSAVLREGEYAMYPDCPSVRGQRHIKELIKLARDGKRAMIVFIGALPNVSKFKPYKKGDPKIAELLKEALEAGVEIRALGLHMELSGEIIYRGELGVEI | soluble

From the DeepSol protein solubility set
